Measured values from PMC10786891, “Massively parallel profiling of RNA-targeting CRISPR-Cas13d”.

T1: EsCas13d, nuclease-dead (Eubacterium siraeum, UniProt B0MS50, R295A;H300A;R849A;H854A)
T1 sequence: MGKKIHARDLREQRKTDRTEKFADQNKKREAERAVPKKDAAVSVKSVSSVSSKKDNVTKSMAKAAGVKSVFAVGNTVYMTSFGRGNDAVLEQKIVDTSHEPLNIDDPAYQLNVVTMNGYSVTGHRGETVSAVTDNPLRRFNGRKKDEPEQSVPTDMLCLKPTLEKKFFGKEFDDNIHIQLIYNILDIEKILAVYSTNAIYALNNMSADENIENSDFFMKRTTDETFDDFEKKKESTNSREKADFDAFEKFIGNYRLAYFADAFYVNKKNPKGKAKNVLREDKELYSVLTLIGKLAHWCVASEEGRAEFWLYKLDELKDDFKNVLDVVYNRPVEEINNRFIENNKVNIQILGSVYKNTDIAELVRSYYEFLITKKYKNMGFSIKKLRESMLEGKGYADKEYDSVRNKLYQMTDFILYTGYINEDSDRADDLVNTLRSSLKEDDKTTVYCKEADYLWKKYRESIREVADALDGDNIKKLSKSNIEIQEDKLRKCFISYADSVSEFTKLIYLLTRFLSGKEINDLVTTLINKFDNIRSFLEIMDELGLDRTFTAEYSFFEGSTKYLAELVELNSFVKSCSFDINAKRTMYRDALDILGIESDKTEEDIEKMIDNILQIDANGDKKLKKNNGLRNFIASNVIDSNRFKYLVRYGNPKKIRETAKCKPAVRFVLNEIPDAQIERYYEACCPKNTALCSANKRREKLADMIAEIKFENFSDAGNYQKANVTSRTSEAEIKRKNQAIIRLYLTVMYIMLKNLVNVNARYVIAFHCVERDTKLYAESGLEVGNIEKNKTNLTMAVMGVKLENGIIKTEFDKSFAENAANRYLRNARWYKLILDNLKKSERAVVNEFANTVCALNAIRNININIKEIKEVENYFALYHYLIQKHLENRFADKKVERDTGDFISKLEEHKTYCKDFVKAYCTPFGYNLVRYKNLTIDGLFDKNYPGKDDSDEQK

B1: target 1 A1C,U3C (mixed)
RNA 1: CACCCGUGCAAAAAUGCAGGGGUCUAAAACUGAGCGGAUAACCUCUCUAUGG
RNA 2: GGGAAUGGAUCCACAUCUACGAAUUCGUACCAUAGAGAGGUUAUCCGCCCCCCGAGAUCGGAAGAGCACACGU
B2: target 1 insC 3' of 20,insU 3' of 9 (mixed)
RNA 1: CACCCGUGCAAAAAUGCAGGGGUCUAAAACUGAGCGGAUAACCUCUCUAUGG
RNA 2: GGGAAUGGAUCCACAUCUACGAAUUCGUACCACUAGAGAGGUUAUUCCGCUCACCGAGAUCGGAAGAGCACACGU
B3: target 3 A5G,U7C (mixed)
RNA 1: CACCCGUGCAAAAUUGCAGGGGUCUAAAACGACCUGAAUAUUUCAGAUCAAA
RNA 2: GGGAAUGGAUCCACAUCUACGAAUUCGUUUUUGAUCUGAAAUAUCCGGGUCUGCAGAUCGGAAGAGCACACGU
B4: target 3 G3C,A5G (mixed)
RNA 1: CACCCGUGCAAAAUUGCAGGGGUCUAAAACGACCUGAAUAUUUCAGAUCAAA
RNA 2: GGGAAUGGAUCCACAUCUACGAAUUCGUUUUUGAUCUGAAAUAUUCGGCUCUGCAGAUCGGAAGAGCACACGU
B5: target 3 G3C,C6A (mixed)
RNA 1: CACCCGUGCAAAAUUGCAGGGGUCUAAAACGACCUGAAUAUUUCAGAUCAAA
RNA 2: GGGAAUGGAUCCACAUCUACGAAUUCGUUUUUGAUCUGAAAUAUUAAGCUCUGCAGAUCGGAAGAGCACACGU
B6: target 3 insC 3' of 22,insA 3' of 6 (mixed)
RNA 1: CACCCGUGCAAAAUUGCAGGGGUCUAAAACGACCUGAAUAUUUCAGAUCAAA
RNA 2: GGGAAUGGAUCCACAUCUACGAAUUCGUUUCUUGAUCUGAAAUAUUCAAGGUCUGCAGAUCGGAAGAGCACACGU
B7: target 3 G3U,U8G (mixed)
RNA 1: CACCCGUGCAAAAUUGCAGGGGUCUAAAACGACCUGAAUAUUUCAGAUCAAA
RNA 2: GGGAAUGGAUCCACAUCUACGAAUUCGUUUUUGAUCUGAAAUAGUCAGUUCUGCAGAUCGGAAGAGCACACGU
B8: target 3 G4A,U8A (mixed)
RNA 1: CACCCGUGCAAAAUUGCAGGGGUCUAAAACGACCUGAAUAUUUCAGAUCAAA
RNA 2: GGGAAUGGAUCCACAUCUACGAAUUCGUUUUUGAUCUGAAAUAAUCAAGUCUGCAGAUCGGAAGAGCACACGU
B9: target 3 insG 3' of 9,insA 3' of 3 (mixed)
RNA 1: CACCCGUGCAAAAUUGCAGGGGUCUAAAACGACCUGAAUAUUUCAGAUCAAA
RNA 2: GGGAAUGGAUCCACAUCUACGAAUUCGUUUUUGAUCUGAAAUAGUUCAGGAUCUGCAGAUCGGAAGAGCACACGU
B10: target 3 U2G,U10A (mixed)
RNA 1: CACCCGUGCAAAAUUGCAGGGGUCUAAAACGACCUGAAUAUUUCAGAUCAAA
RNA 2: GGGAAUGGAUCCACAUCUACGAAUUCGUUUUUGAUCUGAAAAAUUCAGGGCUGCAGAUCGGAAGAGCACACGU
B11: target 3 G4C,C6U (mixed)
RNA 1: CACCCGUGCAAAAUUGCAGGGGUCUAAAACGACCUGAAUAUUUCAGAUCAAA
RNA 2: GGGAAUGGAUCCACAUCUACGAAUUCGUUUUUGAUCUGAAAUAUUUACGUCUGCAGAUCGGAAGAGCACACGU
B12: target 3 A18G,U21C (mixed)
RNA 1: CACCCGUGCAAAAUUGCAGGGGUCUAAAACGACCUGAAUAUUUCAGAUCAAA
RNA 2: GGGAAUGGAUCCACAUCUACGAAUUCGUUUCUGGUCUGAAAUAUUCAGGUCUGCAGAUCGGAAGAGCACACGU
B13: target 3 C1G,G4U (mixed)
RNA 1: CACCCGUGCAAAAUUGCAGGGGUCUAAAACGACCUGAAUAUUUCAGAUCAAA
RNA 2: GGGAAUGGAUCCACAUCUACGAAUUCGUUUUUGAUCUGAAAUAUUCAUGUGUGCAGAUCGGAAGAGCACACGU
B14: target 3 C1U,A5C (mixed)
RNA 1: CACCCGUGCAAAAUUGCAGGGGUCUAAAACGACCUGAAUAUUUCAGAUCAAA
RNA 2: GGGAAUGGAUCCACAUCUACGAAUUCGUUUUUGAUCUGAAAUAUUCCGGUUUGCAGAUCGGAAGAGCACACGU
B15: target 3 insC 3' of 4,insU 3' of 4 (mixed)
RNA 1: CACCCGUGCAAAAUUGCAGGGGUCUAAAACGACCUGAAUAUUUCAGAUCAAA
RNA 2: GGGAAUGGAUCCACAUCUACGAAUUCGUUUUUGAUCUGAAAUAUUCAGCUGUCUGCAGAUCGGAAGAGCACACGU
B16: target 3 del2,del4 (mixed)
RNA 1: CACCCGUGCAAAAUUGCAGGGGUCUAAAACGACCUGAAUAUUUCAGAUCAAA
RNA 2: GGGAAUGGAUCCACAUCUACGAAUUCGUUUUUGAUCUGAAAUAUUCAGCUGCAGAUCGGAAGAGCACACGU
B17: target 3 insU 3' of 14,insG 3' of 2 (mixed)
RNA 1: CACCCGUGCAAAAUUGCAGGGGUCUAAAACGACCUGAAUAUUUCAGAUCAAA
RNA 2: GGGAAUGGAUCCACAUCUACGAAUUCGUUUUUGAUCUGUAAAUAUUCAGGUGCUGCAGAUCGGAAGAGCACACGU
B18: target 3 U20C (mixed)
RNA 1: CACCCGUGCAAAAUUGCAGGGGUCUAAAACGACCUGAAUAUUUCAGAUCAAA
RNA 2: GGGAAUGGAUCCACAUCUACGAAUUCGUUUUCGAUCUGAAAUAUUCAGGUCUGCAGAUCGGAAGAGCACACGU
B19: target 3 insG 3' of 7,insG 3' of 7 (mixed)
RNA 1: CACCCGUGCAAAAUUGCAGGGGUCUAAAACGACCUGAAUAUUUCAGAUCAAA
RNA 2: GGGAAUGGAUCCACAUCUACGAAUUCGUUUUUGAUCUGAAAUAUUGGCAGGUCUGCAGAUCGGAAGAGCACACGU
B20: target 3 C1A,G4U (mixed)
RNA 1: CACCCGUGCAAAAUUGCAGGGGUCUAAAACGACCUGAAUAUUUCAGAUCAAA
RNA 2: GGGAAUGGAUCCACAUCUACGAAUUCGUUUUUGAUCUGAAAUAUUCAUGUAUGCAGAUCGGAAGAGCACACGU
B21: target 3 del2,del22 (mixed)
RNA 1: CACCCGUGCAAAAUUGCAGGGGUCUAAAACGACCUGAAUAUUUCAGAUCAAA
RNA 2: GGGAAUGGAUCCACAUCUACGAAUUCGUUUUGAUCUGAAAUAUUCAGGCUGCAGAUCGGAAGAGCACACGU
B22: target 3 G4U,U22G (mixed)
RNA 1: CACCCGUGCAAAAUUGCAGGGGUCUAAAACGACCUGAAUAUUUCAGAUCAAA
RNA 2: GGGAAUGGAUCCACAUCUACGAAUUCGUUGUUGAUCUGAAAUAUUCAUGUCUGCAGAUCGGAAGAGCACACGU
B23: target 3 insA 3' of 22,insC 3' of 4 (mixed)
RNA 1: CACCCGUGCAAAAUUGCAGGGGUCUAAAACGACCUGAAUAUUUCAGAUCAAA
RNA 2: GGGAAUGGAUCCACAUCUACGAAUUCGUUUAUUGAUCUGAAAUAUUCAGCGUCUGCAGAUCGGAAGAGCACACGU
B24: target 3 insA 3' of 6,insG 3' of 2 (mixed)
RNA 1: CACCCGUGCAAAAUUGCAGGGGUCUAAAACGACCUGAAUAUUUCAGAUCAAA
RNA 2: GGGAAUGGAUCCACAUCUACGAAUUCGUUUUUGAUCUGAAAUAUUCAAGGUGCUGCAGAUCGGAAGAGCACACGU
B25: target 3 insA 3' of 21,insG 3' of 6 (mixed)
RNA 1: CACCCGUGCAAAAUUGCAGGGGUCUAAAACGACCUGAAUAUUUCAGAUCAAA
RNA 2: GGGAAUGGAUCCACAUCUACGAAUUCGUUUUAUGAUCUGAAAUAUUCGAGGUCUGCAGAUCGGAAGAGCACACGU
B26: target 3 C1G,G3A (mixed)
RNA 1: CACCCGUGCAAAAUUGCAGGGGUCUAAAACGACCUGAAUAUUUCAGAUCAAA
RNA 2: GGGAAUGGAUCCACAUCUACGAAUUCGUUUUUGAUCUGAAAUAUUCAGAUGUGCAGAUCGGAAGAGCACACGU
B27: target 3 C1U,U8G (mixed)
RNA 1: CACCCGUGCAAAAUUGCAGGGGUCUAAAACGACCUGAAUAUUUCAGAUCAAA
RNA 2: GGGAAUGGAUCCACAUCUACGAAUUCGUUUUUGAUCUGAAAUAGUCAGGUUUGCAGAUCGGAAGAGCACACGU
B28: target 3 U2C,G4A (mixed)
RNA 1: CACCCGUGCAAAAUUGCAGGGGUCUAAAACGACCUGAAUAUUUCAGAUCAAA
RNA 2: GGGAAUGGAUCCACAUCUACGAAUUCGUUUUUGAUCUGAAAUAUUCAAGCCUGCAGAUCGGAAGAGCACACGU

What follows are binders tested against T1, EsCas13d, nuclease-dead (assay: crRNA (strand 1, pre-loaded); Mg2+; 40 mM Tris-HCl pH 7.5, 150 mM NaCl, 6 mM MgCl2, 1 mM DTT, 0.1% Tween-20, 0.2 mg/ml BSA; 25 C; 10 min per concentration, then washed). Details: tags: His6-TwinStrep-SUMO cleaved; N-terminal SNAP kept (SNAP-Surface 488); label: 3' end held by stalled T7 RNA polymerase.

First: B1
Second: B2
The Kd of the first is 2.2-fold higher: 0.018 ± 0.004 µM for the first, 0.008 ± 0.0009 µM for the second.

First: B3
Second: B4
The Kd of the first is 4.1-fold higher: 0.0665 ± 0.011 µM for the first, 0.0161 ± 0.0014 µM for the second.

First: B5
Second: B6
The Kd of the first is 1.8-fold higher: 0.027 ± 0.002 µM for the first, 0.0149 ± 0.00195 µM for the second.

B7 and B8 are within error of each other in Kd: 0.068 ± 0.01 µM for the first, 0.0765 ± 0.0095 µM for the second.

B9 and B10 are within error of each other in Kd: 0.0555 ± 0.0125 µM for the first, 0.063 ± 0.016 µM for the second.

Compared with B11, B12 is 3.7-fold higher in Kd: 0.0202 ± 0.00185 µM for the first, 0.075 ± 0.026 µM for the second. The first binds more tightly here.

First: B13
Second: B14
The Kd of the first is 4.5-fold lower: 0.0135 ± 0.00165 µM for the first, 0.0605 ± 0.0095 µM for the second.

B15 and B16 are within 1.5-fold of each other in Kd: 0.025 ± 0.00325 µM for the first, 0.0369 ± 0.0052 µM for the second.

B17 and B18 are within error of each other in Kd: 0.0335 ± 0.011 µM for the first, 0.0625 ± 0.018 µM for the second.

Compared with B19, B20 is 2.4-fold lower in Kd: 0.0415 ± 0.0055 µM for the first, 0.0175 ± 0.00435 µM for the second. The second binds more tightly here.

Going from B21 to B22, the Kd rises from 0.00525 ± 0.0007 µM to 0.037 ± 0.006 µM (7-fold). The first binds more tightly here.

Going from B23 to B24, the Kd falls from 0.0194 ± 0.00455 µM to 0.00405 ± 0.0006 µM (4.8-fold).

B25 and B26 are within error of each other in Kd: 0.0485 ± 0.0065 µM for the first, 0.08 ± 0.04 µM for the second.

Compared with B27, B28 is 3.8-fold lower in Kd: 0.0645 ± 0.0165 µM for the first, 0.0169 ± 0.00245 µM for the second.
